Target: Porphyromonas gingivalis heme-binding protein HmuY, heme-bound form (holo-HmuY) (Porphyromonas gingivalis)
Assay: crystal structure; holo-HmuY (heme-bound), sitting-drop vapor diffusion at 20°C, 26 mg/mL protein in 5 mM Tris/HCl pH 8.0, reservoir 2.4 M (NH4)2SO4, 0.1 M MES pH 6.0; tetragonal crystals, one dimer per asymmetric unit; tetramer created by a local and a crystallographic two-fold axis

Substance: Porphyromonas gingivalis heme-binding protein HmuY, heme-bound form (holo-HmuY) (natural protein)
- stoichiometry N: 4

Source: article PMC2671838
